The source of these data is US20240269271A1.

In test [1] the target is HVEM. As to the kind of experiment: competition ELISA, plates coated with BTLA, HVEM binding read out. For orientation: An ELISA detects its analyte on a solid surface through an enzyme-linked reagent.
The target of test [2] is HVEM. As to the kind of experiment: competition ELISA, plates coated with BTLA, HVEM binding read out; control protein.

As for “commercially available gD protein (ligand)”, the percent inhibition of HVEM binding to BTLA in test [1] worked out at 90%.

As to “sequence of the V2 loop of HIV envelope linked to a His-tag”, in test [2], the percent inhibition of HVEM binding to BTLA is 45%.
